We go through seven substances from PMC3906981.

For one assay, the target named is HA-tagged PAK2 (p21 protein (Cdc42/Rac)-activated kinase) (UniProt Q13177). The assay can be described thus: co-immunoprecipitation (anti-AU1) with in vitro kinase assay, densitometric quantification. Set-up: reference not given here. Conditions: cells transfected with Nef, CDC42V12 and PAK2-HA; parent: 114.
UniProt Q13177, sequence (Q13177 whole entry): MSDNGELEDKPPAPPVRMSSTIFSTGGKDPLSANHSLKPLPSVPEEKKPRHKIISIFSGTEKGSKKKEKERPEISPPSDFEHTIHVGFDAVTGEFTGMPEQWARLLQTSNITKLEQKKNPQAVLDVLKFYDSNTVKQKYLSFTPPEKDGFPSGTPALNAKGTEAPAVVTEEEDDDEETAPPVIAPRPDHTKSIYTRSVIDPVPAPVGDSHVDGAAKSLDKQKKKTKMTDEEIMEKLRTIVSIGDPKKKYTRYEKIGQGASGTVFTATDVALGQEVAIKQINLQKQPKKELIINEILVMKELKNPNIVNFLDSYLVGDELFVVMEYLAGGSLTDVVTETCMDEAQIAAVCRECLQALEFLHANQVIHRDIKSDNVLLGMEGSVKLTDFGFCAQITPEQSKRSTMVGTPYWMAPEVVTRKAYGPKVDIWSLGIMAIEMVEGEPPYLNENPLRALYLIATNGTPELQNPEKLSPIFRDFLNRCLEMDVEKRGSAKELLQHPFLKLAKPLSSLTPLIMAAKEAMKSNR
Take “AU1-tagged SIVblu Nef, wild-type R129A; R130A”: the response turned out to be 0.

The assay is the same for the next values; noted with them: cells transfected with Nef, CDC42V12 and PAK2-HA; parent: 160.
As to “AU1-tagged SIVmac239 Nef, wild-type H121R”, the response worked out at 23.
In the case of “AU1-tagged SIVmac239 Nef, wild-type H121R; Y221R”, the response came to 0.
The same measure, in the same setting: next, “AU1-tagged SIVmac239 Nef, wild-type P104A”: 123; “AU1-tagged SIVmac239 Nef, wild-type P104A; P107A”: 34.
As to “AU1-tagged SIVmac239 Nef, wild-type P107A”, the response was found to be 59.
On the same count and under the same terms, then “AU1-tagged SIVmac239 Nef, wild-type Y221R”, with 26.
